In publication PMC12051234, “NrdR in Streptococcus and Listeria spp.: DNA Helix Phase Dependence of the Bacterial Ribonucleotide Reductase Repressor”:

T1: ScoNrdR (Streptomyces coelicolor, UniProt O69980 1-182)
T1 sequence: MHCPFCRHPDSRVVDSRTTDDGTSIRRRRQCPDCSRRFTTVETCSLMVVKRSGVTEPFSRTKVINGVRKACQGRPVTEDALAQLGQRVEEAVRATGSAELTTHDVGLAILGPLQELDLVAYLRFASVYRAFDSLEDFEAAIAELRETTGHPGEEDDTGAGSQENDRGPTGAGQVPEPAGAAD

T2: EcoNrdR (Escherichia coli, UniProt P0A8D0 1-149)
T2 sequence: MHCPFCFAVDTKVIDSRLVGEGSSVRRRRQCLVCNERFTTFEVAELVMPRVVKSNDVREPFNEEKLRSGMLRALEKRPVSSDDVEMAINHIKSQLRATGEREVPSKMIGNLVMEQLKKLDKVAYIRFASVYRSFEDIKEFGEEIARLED

T3: LmoNrdR (Listeria monocytogenes serotype 1/2a …, UniProt Q8Y6W9 1-154)
T3 sequence: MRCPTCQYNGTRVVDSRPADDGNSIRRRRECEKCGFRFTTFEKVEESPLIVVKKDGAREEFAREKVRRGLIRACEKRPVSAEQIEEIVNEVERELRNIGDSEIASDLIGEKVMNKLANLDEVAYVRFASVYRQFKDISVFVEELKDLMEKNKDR

T4: SpnNrdR (Streptococcus pneumoniae TIGR4, UniProt P67318 1-157)
T4 sequence: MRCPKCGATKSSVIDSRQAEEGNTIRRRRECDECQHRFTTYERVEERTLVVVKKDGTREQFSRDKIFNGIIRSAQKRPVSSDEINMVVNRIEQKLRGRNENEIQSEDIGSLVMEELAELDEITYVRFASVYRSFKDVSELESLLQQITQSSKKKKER


Assays:
Assay in all cases: MST; dATP + ATP; MST, temperature not stated. Lmo: 25 mM Bis-Tris propane pH 6.5, 100 mM KCl, 5 mM MgCl2, 5% glycerol, 1 mM DTT, 0.05% Tween 20, one nucleotide 1 mM or two at 0.5 mM each; Spn: 25 mM HEPES pH 7.2, 250 mM NaCl, 2.5 mM MgCl2, 15% glycerol, 2 mM DTT, 0.1 mg/mL BSA, 0.05% Tween 20, 0.5 mM ATP and/or dATP; Eco: 25 mM Tris pH 8.5, 100 mM NaCl, 7 mM MgCl2, 1 mM DTT, 0.025% Tween 20, 1 mM ATP + 1 mM dATP; …
ScoNrdR = molecular target: T1, ScoNrdR; settings: protein: recombinant; chain copies: 4; label: 5'-Cy5 sense; blunt
EcoNrdR = molecular target: T2, EcoNrdR; settings: protein: recombinant; chain copies: 4; label: 5'-Cy5 sense; blunt
LmoNrdR = molecular target: T3, LmoNrdR; settings: protein: recombinant; tags: C-terminal His6; chain copies: 4; label: 5'-Cy5 sense; blunt
SpnNrdR = molecular target: T4, SpnNrdR; settings: protein: recombinant; tags: C-terminal His6; chain copies: 4; label: 5'-Cy5 sense; blunt

Binder | Kd (ScoNrdR) | Kd (EcoNrdR) | Kd (LmoNrdR) | Kd (SpnNrdR)
Synt 12 bp spacer (dsDNA) DNA 1: GCCAAACACAACATCTAGTGGTTGGATAGGAGCACACAACATCTAGTGGACCTC DNA 2: GAGGTCCACTAGATGTTGTGTGCTCCTATCCAACCACTAGATGTTGTGTTTGGC | 580 ± 79 nM | 1380 ± 309 nM | 37 ± 6 nM | 5060 ± 511 nM
Synt 13 bp spacer (dsDNA) DNA 1: GCCAAACACAACATCTAGTGGTTGGATAGTGAGCACACAACATCTAGTGGACCTC DNA 2: GAGGTCCACTAGATGTTGTGTGCTCACTATCCAACCACTAGATGTTGTGTTTGGC | 158 ± 19 nM | 117 ± 24 nM | 11 ± 1.8 nM | 3940 ± 290 nM
Synt 14 bp spacer (dsDNA) DNA 1: GCCAAACACAACATCTAGTGGTTGGATAGCTGAGCACACAACATCTAGTGGACCTC DNA 2: GAGGTCCACTAGATGTTGTGTGCTCAGCTATCCAACCACTAGATGTTGTGTTTGGC | 154 ± 28 nM | 169 ± 27 nM | 2 ± 0.5 nM | 699 ± 109 nM
Synt 15 bp spacer (dsDNA) DNA 1: GCCAAACACAACATCTAGTGGTTGGATAGCGTGAGCACACAACATCTAGTGGACCTC DNA 2: GAGGTCCACTAGATGTTGTGTGCTCACGCTATCCAACCACTAGATGTTGTGTTTGGC | 45 ± 13 nM | – | 1 ± 0.2 nM | 55 ± 14 nM
Synt 16 bp spacer (dsDNA) DNA 1: GCCAAACACAACATCTAGTGGTTGGATAGCGTGAAGCACACAACATCTAGTGGACCTC DNA 2: GAGGTCCACTAGATGTTGTGTGCTTCACGCTATCCAACCACTAGATGTTGTGTTTGGC | 28 ± 7 nM | 82 ± 22 nM | 1 ± 0.4 nM | 41 ± 11 nM
Synt 17 bp spacer (dsDNA) DNA 1: GCCAAACACAACATCTAGTGGTTGGATAGCGTGAAGGCACACAACATCTAGTGGACCTC DNA 2: GAGGTCCACTAGATGTTGTGTGCCTTCACGCTATCCAACCACTAGATGTTGTGTTTGGC | 21 ± 7 nM | 45 ± 6 nM | 1 ± 0.4 nM | 340 ± 83 nM
Synt 18 bp spacer (dsDNA) DNA 1: GCCAAACACAACATCTAGTGGTTGGATAGCGTGAAGTGCACACAACATCTAGTGGACCTC DNA 2: GAGGTCCACTAGATGTTGTGTGCACTTCACGCTATCCAACCACTAGATGTTGTGTTTGGC | 476 ± 80 nM | 66 ± 12 nM | 3 ± 0.6 nM | 6600 ± 536 nM
Synt 19 bp spacer (dsDNA) DNA 1: GCCAAACACAACATCTAGTGGTTGGATAGCGTGAAGTAGCACACAACATCTAGTGGACCTC DNA 2: GAGGTCCACTAGATGTTGTGTGCTACTTCACGCTATCCAACCACTAGATGTTGTGTTTGGC | 1660 ± 221 nM | 601 ± 113 nM | 51 ± 7 nM | 11600 ± 340 nM
Synt 20 bp spacer (dsDNA) DNA 1: GCCAAACACAACATCTAGTGGTTGGATAGCGTGACAGTAGCACACAACATCTAGTGGACCTC DNA 2: GAGGTCCACTAGATGTTGTGTGCTACTGTCACGCTATCCAACCACTAGATGTTGTGTTTGGC | 2190 ± 449 nM | 3320 ± 540 nM | 122 ± 10 nM | 12300 ± 388 nM
Synt 24 bp spacer (dsDNA) DNA 1: GCCAAACACAACATCTAGTGGTTGGATAGCGTGAATTCACCTAGCACACAACATCTAGTGGACCTC DNA 2: GAGGTCCACTAGATGTTGTGTGCTAGGTGAATTCACGCTATCCAACCACTAGATGTTGTGTTTGGC | 763 ± 104 nM | 141 ± 34 nM | 26 ± 3 nM | 9200 ± 374 nM
Synt 25 bp spacer (dsDNA) DNA 1: GCCAAACACAACATCTAGTGGTTGGATAGCGTGAAGTTCACCTAGCACACAACATCTAGTGGACCTC DNA 2: GAGGTCCACTAGATGTTGTGTGCTAGGTGAACTTCACGCTATCCAACCACTAGATGTTGTGTTTGGC | 4050 ± 272 nM | 326 ± 44 nM | 25 ± 12 nM | 4370 ± 343 nM
Synt 27 bp spacer (dsDNA) DNA 1: GCCAAACACAACATCTAGTGGTTGGATAGCGTGAAGTTACCACCTAGCACACAACATCTAGTGGACCTC DNA 2: GAGGTCCACTAGATGTTGTGTGCTAGGTGGTAACTTCACGCTATCCAACCACTAGATGTTGTGTTTGGC | 3500 ± 626 nM | 27 ± 8 nM | 18 ± 6 nM | 3190 ± 238 nM
Sth nrdHEF (16 bp spacer) (dsDNA) DNA 1: TCAAAACACAAGATATAGGGTTGTGTTTCAATACTAAACACAAAATATTGTATTCCTT DNA 2: AAGGAATACAATATTTTGTGTTTAGTATTGAAACACAACCCTATATCTTGTGTTTTGA | – | – | – | 800 ± 250 nM
Synt 26 bp spacer (dsDNA) DNA 1: GCCAAACACAACATCTAGTGGTTGGATAGCGTGAAGTTCCACCTAGCACACAACATCTAGTGGACCTC DNA 2: GAGGTCCACTAGATGTTGTGTGCTAGGTGGAACTTCACGCTATCCAACCACTAGATGTTGTGTTTGGC | 4400 ± 355 nM | 24 ± 7 nM | – | 2910 ± 225 nM
Sth nrdDG (16 bp spacer) (dsDNA) DNA 1: TCGAAAATCAATATATAGTGGTTGAGATAAAAATATACCACAATATATTGATTTTCCT DNA 2: AGGAAAATCAATATATTGTGGTATATTTTTATCTCAACCACTATATATTGATTTTCGA | – | – | – | 1150 ± 320 nM
Eco nrdHIEF box 1 duplicated (dsDNA) DNA 1: GTCTCTTGCTATATATTGTGTGGTTGAATCTTTTTTTTGCTATATATTGTGTCTCTG DNA 2: CAGAGACACAATATATAGCAAAAAAAAGATTCAACCACACAATATATAGCAAGAGAC | – | 213 ± 40 nM | – | –
Eco nrdHIEF box 2 duplicated (dsDNA) DNA 1: GTCTCCAACTACATCTAGTATGGTTGAATCTTTTTTCAACTACATCTAGTATCTCTG DNA 2: CAGAGATACTAGATGTAGTTGAAAAAAGATTCAACCATACTAGATGTAGTTGGAGAC | – | 99 ± 33 nM | – | –
